1 substance from US20220220215A1 can be followed below.

The target of this test is human CD137 expressed on cells (Jurkat human CD137 NF-kB luciferase reporter cells; human CD8+ T cells) (human) (UniProt Q07011). Nature of the test: cell-based or functional assay.

Urelumab analog (antibody) came in with a CD8+ T-cell activation assay - IL-2 release, EC50 of 0.397 nM.
